From patent US20240261333A1 (published 2024)

How the values were obtained:
DNAJA3 = biological target: T1, DNAJA3 (human, UniProt Q96EY1-2 66-453, limits assumed); experiment: anti-FLAG co-IP from lysate of N-FLAG B3GNT2 cells, mass spectrometry
T1 construct: also called NP_001128582.1 (+1)
T1 sequence (looked up): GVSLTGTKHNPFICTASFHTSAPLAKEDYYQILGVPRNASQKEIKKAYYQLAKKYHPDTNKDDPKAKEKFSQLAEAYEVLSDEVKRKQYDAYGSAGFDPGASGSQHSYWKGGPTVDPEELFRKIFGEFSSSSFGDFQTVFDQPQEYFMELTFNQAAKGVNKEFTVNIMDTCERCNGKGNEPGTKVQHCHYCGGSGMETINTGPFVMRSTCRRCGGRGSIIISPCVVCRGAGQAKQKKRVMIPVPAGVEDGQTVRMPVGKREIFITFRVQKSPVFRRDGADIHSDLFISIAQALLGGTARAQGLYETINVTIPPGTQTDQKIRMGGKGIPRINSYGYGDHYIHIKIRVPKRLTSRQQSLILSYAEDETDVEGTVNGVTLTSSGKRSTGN

KTN1 = biological target: T2, KTN1 (human, UniProt Q86UP2 1-1357); experiment: as above
T2 construct: also called NP_001072989.1 (+5)
T2 sequence (looked up): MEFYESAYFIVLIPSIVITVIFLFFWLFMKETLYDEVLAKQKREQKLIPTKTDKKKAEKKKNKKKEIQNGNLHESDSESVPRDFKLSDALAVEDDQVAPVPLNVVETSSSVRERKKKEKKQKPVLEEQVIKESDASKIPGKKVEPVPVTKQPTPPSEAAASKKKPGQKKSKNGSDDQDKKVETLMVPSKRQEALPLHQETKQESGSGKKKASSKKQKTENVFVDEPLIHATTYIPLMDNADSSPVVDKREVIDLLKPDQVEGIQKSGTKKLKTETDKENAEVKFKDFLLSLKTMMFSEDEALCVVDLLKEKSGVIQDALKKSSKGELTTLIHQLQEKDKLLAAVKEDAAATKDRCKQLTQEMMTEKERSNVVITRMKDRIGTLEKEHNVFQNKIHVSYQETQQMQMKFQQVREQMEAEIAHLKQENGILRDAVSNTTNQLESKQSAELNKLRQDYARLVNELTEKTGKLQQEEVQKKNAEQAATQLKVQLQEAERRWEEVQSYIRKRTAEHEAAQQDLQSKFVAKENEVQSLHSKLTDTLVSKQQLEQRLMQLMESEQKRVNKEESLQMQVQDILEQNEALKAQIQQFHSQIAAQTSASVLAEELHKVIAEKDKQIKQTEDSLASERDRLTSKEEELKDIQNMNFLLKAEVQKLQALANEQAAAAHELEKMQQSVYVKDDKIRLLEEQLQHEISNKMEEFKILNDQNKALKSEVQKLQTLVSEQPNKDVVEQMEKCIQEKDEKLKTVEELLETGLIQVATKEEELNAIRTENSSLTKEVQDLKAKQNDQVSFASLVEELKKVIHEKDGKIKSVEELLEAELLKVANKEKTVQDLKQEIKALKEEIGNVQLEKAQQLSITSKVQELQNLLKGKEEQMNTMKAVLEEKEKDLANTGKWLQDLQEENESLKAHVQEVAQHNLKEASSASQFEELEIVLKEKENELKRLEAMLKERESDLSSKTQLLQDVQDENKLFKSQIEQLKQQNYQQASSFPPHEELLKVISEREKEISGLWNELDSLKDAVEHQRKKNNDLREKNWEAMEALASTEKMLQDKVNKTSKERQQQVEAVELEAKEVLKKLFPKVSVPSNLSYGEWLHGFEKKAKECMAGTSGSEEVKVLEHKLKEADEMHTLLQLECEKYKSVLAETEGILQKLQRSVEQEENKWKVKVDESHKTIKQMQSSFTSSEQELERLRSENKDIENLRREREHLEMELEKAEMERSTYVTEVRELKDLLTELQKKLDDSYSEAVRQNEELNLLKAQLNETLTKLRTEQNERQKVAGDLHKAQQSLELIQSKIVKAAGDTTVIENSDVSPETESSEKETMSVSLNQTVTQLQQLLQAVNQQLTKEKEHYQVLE

co-IP mass spectrometry count (DNAJA3): 0 | co-IP mass spectrometry count (KTN1): 0
B1: N-terminal FLAG tagged B3GNT2 (enzyme, human, UniProt Q9NY97 1-397, looked up)
chain: MSVGRRRIKLLGILMMANVFIYFIMEVSKSSSQEKNGKGEVIIPKEKFWKISTPPEAYWNREQEKLNRQYNPILSMLTNQTGEAGRLSNISHLNYCEPDLRVTSVVTGFNNLPDRFKDFLLYLRCRNYSLLIDQPDKCAKKPFLLLAIKSLTPHFARRQAIRESWGQESNAGNQTVVRVFLLGQTPPEDNHPDLSDMLKFESEKHQDILMWNYRDTFFNLSLKEVLFLRWVSTSCPDTEFVFKGDDDVFVNTHHILNYLNSLSKTKAKDLFIGDVIHNAGPHRDKKLKYYIPEVVYSGLYPPYAGGGGFLYSGHLALRLYHITDQVHLYPIDDVYTGMCLQKLGLVPEKHKGFRTFDIEEKNKNNICSYVDLMLVHSRKPQEMIDIWSQLQSAHLKC
notes: Bait of the co-IP; pulled down from cell lysate with mouse anti-FLAG antibody; also called N-FLAG B3GNT2; N-term FLAG; not shown: N-terminal FLAG tag
